From the supplement of paper PMC9732359
± gives the uncertainty stated by the source.

Test: protein stability index of a GFP-peptide fusion (yeast GPS) (PSI 1-4); higher = more stable; sorted into four equal gates, so the index is relative within each strain
Outline: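 The protein stability index combines read frequencies across sorting gates, each weighted by its gate number and then summed. To obtain those frequencies, a pooled yeast library of GFP fusions to tiled 17-residue yeast protein peptides, on a plasmid also expressing Cherry, was grown to mid-log phase in leucine-free medium. The cells were sorted into four equal gates by GFP/Cherry ratio before plasmid amplification by PCR and Illumina sequencing.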

| Sequence | protein stability index (doa10∆) | protein stability index (pdr5∆) | protein stability index (san1∆) | protein stability index (ubr1∆) |
| --- | --- | --- | --- | --- |
| KLSKILRTEYGWDSLAS [SNU114] | 3.17 ± 0.14 | 3.17 ± 0.2 | 3.1 ± 0.21 | 3.3 ± 0.17 |
| FPRNGKAPEAEQVLSAA [RPL13A] | 3.14 ± 0.098 | 2.76 ± 0.093 | 3.13 ± 0.1 | 2.77 ± 0.05 |
| MTAAVTSSNIVLETHES [RPT6] | 2.65 ± 0.094 | 2.78 ± 0.057 | 2.79 ± 0.081 | 2.48 ± 0.059 |
| TGEKPIITGSTSTSSSN [MED8] | 2.79 ± 0.048 | 2.52 ± 0.04 | 2.57 ± 0.044 | 2.37 ± 0.033 |
| SKNFNVILASSLNEVGT [YML103C/NUP188] | 2.44 ± 0.045 | 2.42 ± 0.043 | 2.56 ± 0.051 | 2.39 ± 0.036 |
| NIRNNIESQNLDLIPHS [SRB4] | 2.62 ± 0.052 | 2.92 ± 0.046 | 2.62 ± 0.05 | 2.7 ± 0.029 |
| TQPKAEATQDDDFDMLF [NUT1] | 2.73 ± 0.069 | 3.15 ± 0.051 | 2.99 ± 0.053 | 3.14 ± 0.043 |
| LYRYRFDPFQAVSRSMT [ECM29] | 2.57 ± 0.067 | 2.65 ± 0.049 | 2.76 ± 0.057 | 2.74 ± 0.043 |
| GIVETNRPDNKNAQYHL [RPN7] | 3.17 ± 0.11 | 3.21 ± 0.13 | 3.4 ± 0.069 | 3.06 ± 0.054 |
| ATFSVSQASSDLGETFR [CSL4] | 3.04 ± 0.086 | 2.64 ± 0.064 | 3.23 ± 0.065 | 2.57 ± 0.041 |
| AEEVRNFALTTLIDLVK [ECM29] | 2.59 ± 0.086 | 1.9 ± 0.075 | 1.78 ± 0.073 | 2 ± 0.059 |
| TARINNRRLFKKCIDFF [RRI2] | 2 ± 0.082 | 2.18 ± 0.059 | 1.91 ± 0.11 | 2.18 ± 0.054 |
| SGLNRAISTGNWSLKRF [RET1] | 2.56 ± 0.07 | 2.57 ± 0.078 | 2.67 ± 0.087 | 2.41 ± 0.054 |
| TSHYQNYHPNASITPYK [RPN4] | 2.84 ± 0.081 | 3.11 ± 0.074 | 2.94 ± 0.055 | 2.89 ± 0.063 |
| MMLGEHLMSWSKTGIIA [SIN4] | 1.6 ± 0.11 | 1.24 ± 0.11 | 1.06 ± 0.13 | 1.53 ± 0.27 |
| LSERKAEKAEIRKRRAS [RPS6A] | 3.44 ± 0.17 | 3.06 ± 0.23 | 3.24 ± 0.13 | 3.36 ± 0.14 |
| VEWNDQVEKLGKKMEAR [RPN9] | – | 3.28 ± 0.15 | 3.29 ± 0.12 | 3.34 ± 0.14 |
| AKPDNLANFSNEVAMNN [SWP82] | 3.22 ± 0.082 | 3.21 ± 0.078 | 3.13 ± 0.052 | 3.23 ± 0.067 |
| SADREIQRTLMELLTQM [RPT4] | 2.93 ± 0.12 | 3.16 ± 0.1 | 3.27 ± 0.087 | 3.02 ± 0.095 |
| PEQYSDILLNERVWNIC [AAR2] | 3.38 ± 0.12 | 3.23 ± 0.22 | 2.68 ± 0.18 | 2.99 ± 0.18 |
| DDVKNILNAKYTKETYQ [RPN6] | 3.26 ± 0.076 | 2.99 ± 0.066 | 3.08 ± 0.052 | 3.12 ± 0.064 |
| KKNRDKKIFGTGKRLAK [RPS24A] | 3.4 ± 0.05 | 3.23 ± 0.039 | 3.291 ± 0.028 | 3.26 ± 0.033 |
| AENDVIEATDLGNIASS [BRR2] | 3.05 ± 0.075 | 3.17 ± 0.086 | 3.19 ± 0.064 | 3.27 ± 0.056 |
| SFFNISPDAPKEIMDKI [SIN4] | 3.48 ± 0.11 | 3.32 ± 0.14 | 3 ± 0.13 | 3.29 ± 0.1 |
| FGHIDLAKPVFHVGFIA [RPO21] | 2.37 ± 0.072 | 2.7 ± 0.085 | 2.73 ± 0.052 | 2.63 ± 0.06 |
| TYPAGFMDVITLDATNE [RPS4A] | 2.71 ± 0.085 | 3.11 ± 0.086 | 3.11 ± 0.062 | 2.95 ± 0.063 |
